The source of these data is paper PMC4682653.

The data set relates to UvrY-His6 phosphorylated (UvrY-P) (Escherichia coli MG1655). The experiment in a line: EMSA. The following applies: in vitro phosphorylated; 20 mM Tris-HCl pH 7.5, 10% glycerol, 50 mM KCl, 3 mM MgCl2, 1 mM DTT, 100 ug/mL BSA, 0.5 nM DNA, 30 min at 37 C (Fig 3 legend: room temperature).

Take csrB EMSA probe (-246 to +49): the binding signal (fold affinity vs non-phosphorylated UvrY) was found to be 2.

Consider csrC EMSA probe (-247 to +56), for which the binding signal (fold affinity vs non-phosphorylated UvrY) turned out to be 2.
